Experiment: yeast display, Sf9 membrane polyspecificity reagent, FACS + sequencing; frameworks hold sequencing errors
Method in brief: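 Galactose induction of a Saccharomyces cerevisiae BJ5465 synthetic nanobody display library ran 36–48 hours. The cells were then stained for 1 hour at 4 °C with 10% biotinylated, detergent-solubilized Sf9 membrane reagent, pulled down on streptavidin microbeads and FACS-sorted into low and high (top ~1%) gates on expression and reagent-binding fluorescence. Labels for polyreactivity follow the gate of origin.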

Sequence	polyreactivity (PSR sort gate)
QQQLHESGGGLVQAGGSLRLSCAASGSISQAWYMGWYRQAPGKERELVAAINVGAITYYADIVKGRFSISRDNAKNTVFLPMNSLTPEDTAVYYCAVDQYSEAYYDYWGQGTQATVSS	high polyreactivity
QRQLVESGGGLVQAGGRLRLSCAASGMTVWDYAMGWYRHATGKERQLVAAISGSGARTYYADSVKWRFTISRDTAKNTVYLQMNSLNPEDTAVYYCAARAVRATAKYEYWGQGTQVTVSS	high polyreactivity
QVDLVASGGGLVQAGGSLRLSCAASGNIFANYAMGSYRQAPGKERELVAAIRWSASRTYYADSVKARFTISRDNAKNSVYFQLNSLKPEDTAVYYCAATIYTFWDYYYDYWGQGTQVTVSW	high polyreactivity
QVEHLDSGGGLVQAGGILRLSCASSGIIFGYYAMGWYRQEPGKERELVAGITYRTGSTYYADSVKGRFTISRDNAKNTVYLQMNSLKPEDTEVYFCAATQYTRNYSSWYYYWGQGTQVTVSS	high polyreactivity
QVEIVESGGGLVQAGGSLRLSCAASGRTFSYYAMGWYRQAPGKERELVAAISTSGGSTYYAVSVKGRFTISRDYAKITVYLQMNSLKPEDTAVYVCAASPYLRFLYGGFGYWGQGTQVTVSS	high polyreactivity
QVELVASGGGLVQAGGSLRIRCAASGGIFDGNAKGWYRQAPGKEREMVAAISSGGITKYAASVKGRFTISRDNAQYTVYLQMNSLKPEDSAVYYCAASWDRYRFIRNDYWGQGTQVTVSS	high polyreactivity
QVELVESAAGLVQAGGSLRLSCAASALTFSRYTMGWYSQAPGKDRELVAAISRSGASTYYADSVKGRFTISRDNAKNTVYLQTNSLTPEDTGVYYCAKTSTSYGSLPKVTPYPLDYWGQGTQVTVSS	high polyreactivity
QVELVESGGGLVQAGGRPRLSCAASGSTFAGYAMGWERQAPGKERELVAAISRRGGSTYYADSVKGRFTISRDNAKNTVYLQMNSLKPEDTAVYFFARDYPLHYDYWGQGTQVTVSS	high polyreactivity
QVELVESGGGLVQAGGSLRLSCAASGFIFEKYTMGWYRQATGKETELVADITWNGGSTYYADSVKGRFTISRDNAKNTVYLQMNSLKPEDNAVYYCAARVGWNQRRYDYWGQGTQVTVSS	low polyreactivity
QVELVESGGGLVQAGGSLRLSCAASGFIFYRYTMGWYRQAPGKEREVVAAISRRGGSTYYADSVKGRFTISRDNAKNTVYLQLNSLKPEDTAGYYCAARLGGYPRQGRYDYWGQGTQVTVSS	high polyreactivity
QVELVESGGGLVQAGGSLRLSCAASGFTFDRYAMGWYRQAPGTERELVAALTRRGTTTYYADSVKGRFTISRDNAKNTVYLQMNSLKPEDTAVYYCAAKRGSVSRPDYGANDESWGQGTQVTVSS	high polyreactivity
QVELVESGGGLVQAGGSLRLSCDASGITFRSYAMGWYRQAPGKERELVAAIRSGGSTSYADSVKGRFTISRDNAKNTVYLQMNSLKPEDTAVYFCAAGGYVPLTDITFWKFGYWGQGSQVTVSS	low polyreactivity
QVHHVESGFGLVQAGGSLRLSCASSGTFTVNTMGWYRQAPGKERELVAAISTGDTTTYADSVKGRFTISRDNAKNTVYLQMNSLKPEDTAVYYCNVDIGVYAYESDYWGQGTQVTVSS	low polyreactivity
QVHHVESGGGLVQAGGSLRLSCAASGIIFGYNVMGWYRQEPGKVRELVAAMRYSGGSTYYADSVKGSFTISRDNAKNTVYLQMNSLKPEDTAVYYCATYSAVRELLWGNGYWGQGTQVTVSS	high polyreactivity
QVHHVESGGGLVQAGGSLRLSCAASGITFSSYAMGWYRQAPRKERELVAAISYGGGNTYYADSVKGRFTISRDNAKNTVYLQMNSLKPEDTAVYYCNTLYTSYSGLDYWGQGTQVTVSS	high polyreactivity
QVHHVESGGGLVQAGGSLRLSCAASGLTFYGYTMGRSRQAPGKERELVAAISRGTSTKYADSVKGRFTISRDNAKNTVYLQMNSLKPEETAVYYCAAKGSRSGMGYWGQGTQVTVSS	high polyreactivity
QVHHVESGGGLVQAGGSLRLSCAASGSTFGAHAMGWYRQAPGKERELVAVITWNDGSTYYADSVKGRFKISRDNAKNTVYLQMNSLKPEDTAVYYCAAEYADSWSAFAWNYYYWGQGTQVTVSS	high polyreactivity
QVHHVESGGGLVQAGGSLRLSCAASGSTFYGYALGWYRQAPGKERELVAAITGSGDTTYYADSVKGRFTISRDNAKYTVYLQMNSLKPEDTAVYYCNRDYRSDLGYADQSWTDQYDHWGQGTQVTVSS	low polyreactivity
QVHHVESGGGLVQAGGSLRLSSAASGSIFTYTMGWYRQAPGKERELVAAISGGGGRTYYADSVKGRFTISRDNAKNNVYLQMKSLKPEDSAVYYCNAYQYWRYRWQYNYWGQGTQVTVSW	high polyreactivity
QVHHVESGGGLVQAGGSLRLSSAASGSIISYYAMGWSRHAPGKERELVPAINRSGGSTYYADSVKGRFTITRDNAKNTVYLQMNSLKPDDTAVYYCNAVRLYYGAGGQFQYHYWGQGTHVTVSS	high polyreactivity
QVHIVESGGGLVQAGGSLRLSSAASGRIFYRYAMGWYRQAPGKERELVAAISRRGGSTYYADSVKGRFTISRDNAKNTVYLQMNSLKPEDTAVYYCNVYRSAFSYDSWGQGTQVTVSS	high polyreactivity
QVHLEESGGGLVQAGGSLRLSCAASGRTFRHNAMGWYRQAPGKERELVAAISSSGTNTHYADSVKGRFTISRDNAKNTVYLQMNSLKPEDTAVYYCAADRWGARRKQYHENGYWGQGTQVTVSS	high polyreactivity

Sequence	polyreactivity (PSR sort gate)
QVHLEESVGGLLQAGGSLRLSCVASGSTFGAYAMGWYRQAPGKERELVAAINTGDSTNYADSVKGRFTISRDNAKNTVYFQMNSLKPVDTAVYYCAAVSKHSGDELDYWGQGTQVTVSS	high polyreactivity
QVHLGESGARIDQAGGSLRLSCAASGRIFKYNAMGLYRQAPGKEREWVAAISSGGSTNYADTEKGRFTISRDNAKNTVYLQMNSLKPEDTAVYYCAADGTRVSSFHYLVWLGYWGQGTQVNVSS	low polyreactivity
QVHLGESGGGLVQAGGSLRLSGAASGFTFAVNAMGWYRQAPWNERELVAGITSGGRTNYADSVKGRFTISRDNAKNTVYLQMTSLKPEVTAVYYCAAARRYSKGYVPPYYKYRYDYWGQGTHVTVSS	high polyreactivity
QVHLLESGRGLVQAGGSLRLSCAASGRIFYTNAMGSYRQAPGKERELVAVISWGGDTTYYADSVKGRFTISRDNAKNTVYLQMNSLKPEDTAGYYCNADWGPTYEISDSWGQGNQVTVSS	low polyreactivity
QVHLQESAGGLVQAGGSLRLTCSASGYISFDASMGWYRQAPGKERELAASIPKGSSTNYADSVKGRFTIRDNATITVYLQMNSLQPEDTAVCYCAVTYPYWGDYTYWGQGTQVTVSC	low polyreactivity
QVHLQESGGGLMQAGGSQRLSSAASGSISYYSDMGWYRQAPGKEREFVAGIGYGTTTNYADSVKGRFTTSRDNGKNTVYLQMSSMKPEDTAVYYCAAYQGNGYEFYYWGQGTQVTVRS	low polyreactivity
QVHLQESGGGLVQACGSQRLSCAARGSISEGQDMGWYRRAPGKEREFVAGIAPGATTYYADSVRGRFTISRDNANNTVSLQMNSLKPEDTAVYYCAARTVTETDHDYWGQGTQVTVSS	low polyreactivity
QVHLQESGGGLVQAVGSLRLSCAASGNISEYYDMGWYRQAPGKERKFVAGIDFGAITNYADSVKGRFTISRDNAKNTEYLQMRSLKPEDTAVYYCAAGVYDWYAYDYWGQGTQVTVSS	high polyreactivity
QVHLVDSGGGKVQAGGSLRLSCAASGSIFYWNAMGWYRQAPGKERELVATITITTSTNYADSVKGRFTISRDNATHSVYLQMNSMKPEDTAVYYCNAGAPYRYLDEYNYWGQGTQVTVSS	low polyreactivity
QVHLVDSGGGLVQAGGRLRLSCAASASIFLIYAMGWYRQAPGQERELVAAINYSGVRTYYADSVKGRFTISRDNAKNTVYLQMNSLKPEDSAVYYCAVSRGGAYYQYGYWGQGTQVSVSS	high polyreactivity
QVHLVDSGGGLVQAGGSLRLSCAASGRIIYGNAMGWYRQSPGKERELVAAISSGTSTNYADSVKGRFTISRDNAKNTVYLQMNSLKPEDTAVYYCAAGSYSRYIYSLYFDFDYWGQGTQVTVSS	low polyreactivity
QVHLVDSGGGLVQAGGSLRLTCSASGFTFRYYTMGWYIQAPGKERELVAVIRSTGSTNYADSVKGRFTISRDNAKNTVYLQMNSLKPEDTAVYYFNAARGWYNPPKYGSIGFDFWGQGTQVTVSS	high polyreactivity
QVHLVESCGALVHAGGSLRLSCAASGSIFRGNAMGWYRQAPWKERELVAAITGSGGNTYYADSVKGRFTISRDNAKNTVYLQMNSLKPEDTAVYYCNADGWNTYIGPRRYSYDYWGQGTQVTISS	low polyreactivity
QVHLVESCGGLVQARGSLRLSCAASGSTIDYNSMGWYRLAPWKEREMVATITSSVGSTYYEDSVKGRYTISRDNAKNTVDLHMNCVKPEDTAVYYCAADYDYPDYYAPSWRRYTYWGQGTQVTVSS	low polyreactivity
QVHLVESGGALVQAGRSLRLSCAASGSTFTINVKGWYRQAPGKERELVAAINGGGRTNYADSVKGRFTISRDNAKNTVYLLMNSLKPEDTAVYYCAADGLSNVRQMDYWGQGTQVTVSS	low polyreactivity
QVHLVESGGCLVQAGGSLRLSCAASGSIFGDYVMAWYRQAPGKERELVAAITRGGSTYYADSVKGRFTFSRDNAKNTVYLQMNSLKPEDTAVYYCAASYYFVQWGWYYYWGQGTQVTVSS	low polyreactivity
QVHLVESGGCLVQAGGSLRLSGAASGGNFSTYAMGWYRQAPGKERELVSSITERGGSTYYADSVKGRFTISRDNAKNTFDLQMNSLKPEDTAVYYCAADWDASWWLVPTSSYDYWGEGTQVTVSS	low polyreactivity
QVHLVESGGGFVQAGGSLGLSCAASGLTFSGNTMGCYTPAPGKERELVAAISSDGSTNYADSVKGRFTLSRDNAKYSVYLQMNSLKPEDTAVYYCNARVRYYFAFWRDYWGQGTQVTVSS	low polyreactivity
QVHLVESGGGFVQAGGSLRLSCAASGSICGSYAMGWYRQAPGKERELVAAISKSGGNTYYADSVKGRFTISRDNAKNTVYLQMNSVKPEDTAVYYCAAYGFYRWRGYDYSGQGTQVTVSS	high polyreactivity
QVHLVESGGGIVQAGGILRLSCAASGNTFYENVMGWYRQTPGKEREFVAAITYIGGNTYYADSVKGRFTISRDNAKNTVYLQMNSLKPEDTAVYYCAAEWDWPTYYTYYWYFSYDYWGQGTQVTVSS	low polyreactivity
QVHLVESGGGLDQAGGSLRLRCAATGRTFKYYAMGWYRQAPGKERELVAAISGSGGSTYYADSVKGRFTISRDNAKNTVYLQMNSLKPEDTAVYYCAAAGKETSRYAYDSWGQGTQVTVSS	high polyreactivity
